Experimental data: article PMC4346919

How the values were obtained:
Experiment in all cases: far-Western, overlay or dot blot; purified GST-fused peptides resolved by SDS-PAGE, transferred to PVDF membranes and probed with biotin-labeled ALG-2; chemiluminescence, quantified with ImageJ
[1] = target: GST-8 aa-fusion of RBM22
[2] = target: GST-8 aa-fusion of SET1B
[3] = target: substitution of Pro with Ala at position 2, 4 or 5 (P2A, P4A or P5A) or substitution of Pro5 with Leu (P5L)
[4] = target: GST-8 aa-fusion of CHERP

Sequence of biotin-labeled ALG-2 (O75340 whole entry): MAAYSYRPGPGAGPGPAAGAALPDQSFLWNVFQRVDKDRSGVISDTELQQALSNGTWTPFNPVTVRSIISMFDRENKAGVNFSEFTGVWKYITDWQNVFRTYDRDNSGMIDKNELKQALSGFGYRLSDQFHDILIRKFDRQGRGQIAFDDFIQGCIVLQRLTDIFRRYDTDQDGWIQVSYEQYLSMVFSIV

- FW signal relative to that for Sec31A (of the signal for Sec31A) [1]: < 0.0625
- FW signal relative to that for Sec31A (of the signal for Sec31A) [2]: < 0.0625
- relative binding activity (percent of WT) [3]: 40 to 75 % of WT
- FW signal relative to that for Sec31A (of the signal for Sec31A) [4]: < 0.0625
Substance: biotin-labeled ALG-2 (from UniProt O75340 1-191) (natural protein)
